# Measured values: US20200234789A1, “DESIGNED PROTEINS FOR LIGAND BINDING” (THE REGENTS OF THE UNIVERSITY OF CALIFORNIA, priority 2017, published 2020)
# B1: PS1: de novo designed porphyrin-binding four-helix bundle protein; designed sequence SEQ ID NO:1, expressed His-tag-cleaved sequence SEQ ID NO:2 (protein)
# chain: SEFEKLRQTGDELVQAFQRLREIFDKGDDDSLEQVLEEIEELIQKHRQLFDNRQEAADTEAAKQGDQWVQLFQRFREAIDKGDKDSLEQLLEELEQALQKIRELAEKKN
# Assays:
# [1] = Pump-probe transient absorption spectroscopy of bound (CF3)4PZn at 21 and 100° C.; assay type: physicochemical; conditions: non-natural porphyrin (CF3)4PZn
# Description: (§1) FIGS. 3A-3D. Biophysical characterization of apo- and holo-PS1. FIG. 3A: Electronic absorption and emission spectra of (CF3)4PZn/PS1 holo-protein and (CF3)4PZn in toluene solvent. […] FIG. 3B: Determination of KD by apo-PS1 titration into a buffer solution (100 mM NaCl, 50 mM NaPi, pH 7.5) of (CF3)4PZn with 1% w/v octyl-b-D-glucopyranoside. […] FIG. 3C: Circular dichroism (CD) spectra of apo- and holo-PS1 in 50 mM NaPi, 100 mM NaCl, pH 7.5 as a function of temperature. The transitions appear reversible based on the fact that the spectra are identical after cooling to room temperature. Units are in molar residue ellipticity. […] FIG. 3D: Pump-probe transient absorption spectra of (CF3)4PZn bound in the interior of holo-PS1 at 21° C. and 100° C. […] Inset exemplifies identical transient dynamics (primarily intersystem crossing from S1 to T1) at ΔAbs.=482 nm (scaled). […]
# Ultrafast transient absorption spectra were obtained using standard pump-probe methods^9 with a time resolution of approximately 200 fs. Elevated temperature experiments were performed in a custom-made temperature block of anodized aluminum, the temperature of which was controlled by heating rods and monitored by a pair of thermocouples wired to a PID through a solid-state relay. […]
# [2] = Porphyrin binding titration to determine KD (apo-PS1 titrated into (CF3)4PZn, absorbance at 423 nm); conditions: water-insoluble porphyrin solubilized with 1% w/v octylglucopyranoside detergent; 100 mM NaCl, 50 mM NaPi, pH 7.5; read-out: dissociation constant of binding, KD
# Description: as §1
# 2 μM of (CF3)4PZn was solubilized in a 1 mL solution of 50 mM NaPi, 100 mM NaCl, pH 7.5 buffer by inclusion of 1% w/v octyl-b-D-glucopyranoside. 2 μL of a 102 uM stock of apo-PS1 (0.2 μM aliquots) was titrated into the 1 mL solution containing the porphyrin, and an electronic absorption spectrum was measured until >2.5 equivalents of protein were added. Absorbance changes at 423 nm, due to His-Zn coordination-induced spectral shifts of the porphyrin, were fit to a single-site, protein-ligand binding model.
# [3] = Size exclusion chromatography (analytical gel filtration), oligomeric state; assay type: physicochemical; conditions: 100 μM; 50 mM NaPi, 150 mM NaCl, pH 7.0; superdex 75 5/150
# Description: FIG. 7A-7B. […] FIG. 7A: Analytical ultracentrifugation. Solutions of apo- and holo-PS1 were centrifuged at speeds ranging from 25,000 r.p.m. to 45,000 r.p.m. and monitored by absorbance at 280 nm. Parameters were globally fit to the data. Single-species fitting agrees well with the data over the entire range and yields the molecular weight of apo-PS1 […] and holo-PS1 12.24±0.91 kD, which agrees well with the 12.86 kD weight of PS1. […] Partial specific volumes were estimated from SEDNTERP^15 for amino acid side chains. FIG. 7B: Analytical gel filtration analysis of apo- and holo-PS1. Detection wavelengths are labeled as the same color as their respective curves. […] The small peak near 1.05 ml elution volume in holo-PS1 is unbound (excess), aggregated porphyrin eluting in the void volume of the superdex 75 5/150 column. Samples were run at concentrations of 100 μM and 37 μM for apo and holo, respectively, in 50 mM NaPi, 150 mM NaCl, pH 7.0 buffer.
# Gel filtration profiles were obtained using a Superdex 75 5/150 column on an FPLC system (GE Healthcare AKTA). […] The approximate molecular weight (MWapp) was calculated from a standard curve obtained with the GE LMW standard protein kit. […]
# [4] = Porphyrin binding to apo-protein, electronic absorption spectra ((CF3)4PFe loading)
# Description: FIG. 9. Scaled absorption spectra of (CF3)4PM/PS1 complexes, M=Zn^2+, Fe^2+. Loading of (CF3)4PFe into PS1 was ˜40-50%, likely due to the extreme insolubility of the porphyrin. The featured bands at 550-650 nm indicate that (CF3)4PFe is in a homogenous environment in the ferrous state. […] The peak at 423 nm is also indicative of a homogenous binding environment. The absorption spectra were scaled to reflect the relative extinction coefficients of the porphyrins. Buffer=50 mM NaPi, 100 mM NaCl, pH 7.5.
# A 2-fold excess of the cofactor (CF3)4PZn was added from a 4 mM DMSO stock solution to a 50 mM NaPi, 100 mM NaCl, pH 7.5 buffer with apo-protein (Note that final DMSO concentrations were kept <1%.). Buffer solution of apo-PS1 protein was heated for 5 minutes at 50° C., (CF3)4PZn was then added from the DMSO stock solution, the resultant mixture was vortexed for 5 seconds, and placed back in the heat block at 50° C. for 15 minutes, with vortexing every 3 minutes. The protein/cofactor solution was then spun at 14000×g in a Amicon Ultra-0.5 mL centrifuge filter for 10 min, three times, replacing the buffer to 0.5 mL after each 10 min spin. Finally, the protein solution was spun for 4 min at 12000×g in an Amicon ultrafree-MC GV filter (UFC30GV0S). The holo-PS1 sample was then used for spectroscopic experiments immediately afterward, and diluted to an appropriate concentration if necessary. […]
molecule,measurement,setting,value
B1,temperature up to which the porphyrin is bound,[1],up to 100 °C
same,Kd,[2],45 nM
same,degree of dimerization relative to the monomer peak,[3],< 5%
same,binding of (CF3)4PFe (ferrous iron-derivative of the porphyrin),[4],binds
same,loading of (CF3)4PFe,"[4]; 50 mM NaPi, 100 mM NaCl, pH 7.5",40-50%
